These results are taken from the supplement of paper PMC10567573.

± gives the standard deviation.

This data set is described as follows: protein stability index of a GFP-peptide fusion (GPS, HEK-293T) (PSI 1-6); higher = more stable. The settings on record: c terminus: a fixed tail appended.
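Also: 24-mer peptide tiles fused after GFP, lentivirally expressed, FACS-sorted into six equal bins by GFP/DsRed ratio, decoded by Illumina sequencing, PSI is the read-weighted mean bin number.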

With AAAYGHALEQYEGESWRESARYLE [P3H4], the protein stability index amounted to 4.19 ± 0.23 (treatment: DMSO) and 4.21 ± 0.21 (treatment: MLN4924 1 uM, 8 h).

With AAGEPLECPTCGHSYNVTQRRPRV [RNF208], the protein stability index came out at 3.79 ± 0.16 (treatment: DMSO) and 4.18 ± 0.21 (treatment: MLN4924 1 uM, 8 h).

For the sequence AAGGVPGGGSNNGKTPVCHQCHKV [PDLIM7], the protein stability index by setting is: (treatment: DMSO) 3.32 ± 0.62; (treatment: MLN4924 1 uM, 8 h) 3.85 ± 0.56.

Regarding AAGKAEVVLGNIIKKKGWRRSSLV [KCNAB2], the protein stability index was found to be 2.87 ± 0.24 (treatment: DMSO) and 2.96 ± 0.31 (treatment: MLN4924 1 uM, 8 h).

Regarding AAINSIYSNTDANILFYVVGLRNT [GLT8D2], the protein stability index runs as follows: (treatment: DMSO) 2.97 ± 0.91; (treatment: MLN4924 1 uM, 8 h) 2.75 ± 0.73.

Regarding AAKQNHVTADDFVQTSVIGSNGYI [EHMT1], the protein stability index by setting is: (treatment: DMSO) 3.56 ± 0.17; (treatment: MLN4924 1 uM, 8 h) 3.68 ± 0.1.

Turning to AALDGGRSLEELTRLAFELFAEEQ [LPCAT4], the protein stability index is, setting by setting: (treatment: DMSO) 2.91 ± 0.24; (treatment: MLN4924 1 uM, 8 h) 3.33 ± 0.38.

In the case of AAQELENQMKERQGLFFDMEAYLP [TMEM120A], the protein stability index is 3.69 ± 0.27 (treatment: DMSO) and 3.87 ± 0.21 (treatment: MLN4924 1 uM, 8 h).

On to AARGKERCVRVFLEHGADPTVKDL [ASB7], for which the protein stability index runs as follows: (treatment: DMSO) 3.73 ± 0.17; (treatment: MLN4924 1 uM, 8 h) 3.76 ± 0.38.

Turning to AATGGATLAQTISEAAIGGAMLGQ [HDAC6], the protein stability index runs as follows: (treatment: DMSO) 4.1 ± 0.57; (treatment: MLN4924 1 uM, 8 h) 4.11 ± 0.21.

As for ACFLVRGLLLRGAVDGILHMFTPK [SLC6A17], the protein stability index runs as follows: (treatment: DMSO) 2.39 ± 0.73; (treatment: MLN4924 1 uM, 8 h) 2.83 ± 1.2.

As for ACNFEPHESFFSLFSDPRSTRLTR [ZER1], the protein stability index amounted to 2.86 ± 0.22 (treatment: DMSO) and 2.92 ± 0.21 (treatment: MLN4924 1 uM, 8 h).

For ADGDGGGGQCCRRQDSPSPDFYKQ [PCDHGC5], the protein stability index is 4.67 ± 0.25 (treatment: DMSO) and 4.44 ± 0.4 (treatment: MLN4924 1 uM, 8 h).

ADKKRSGKKKISKADIGAPSGFKH [WAS]: the protein stability index came out at 4.63 ± 0.27 (treatment: DMSO) and 4.87 ± 0.24 (treatment: MLN4924 1 uM, 8 h).

In the case of ADPLQLNKALSIILHLICLLEKVP [FEM1C], the protein stability index reads like this: (treatment: DMSO) 3 ± 0.24; (treatment: MLN4924 1 uM, 8 h) 3.16 ± 0.9.

Turning to AEAAPELDLFAMKPPETSVPVVTP [SNAP91], the protein stability index came out at 4.89 ± 0.15 (treatment: DMSO) and 4.98 ± 0.1 (treatment: MLN4924 1 uM, 8 h).

As for AEFILLGLLEAPGLQPVVFVLFLF [OR3A1], the protein stability index runs as follows: (treatment: DMSO) 2.68 ± 0.32; (treatment: MLN4924 1 uM, 8 h) 2.95 ± 0.4.

For AEKSVAPSNTGSRTTSVRCRGIPR [NEK8], the protein stability index runs as follows: (treatment: DMSO) 4.63 ± 0.16; (treatment: MLN4924 1 uM, 8 h) 4.7 ± 0.26.

For the sequence AEPSRFSSSDSDFDDEEPRKFYVH [FCHO1], the protein stability index is, setting by setting: (treatment: DMSO) 4.87 ± 0.18; (treatment: MLN4924 1 uM, 8 h) 4.87 ± 0.13.

As for AEQEPTRKLFEVESVTHHDYRMEL [SPAG8], the protein stability index is, setting by setting: (treatment: DMSO) 4.16 ± 0.16; (treatment: MLN4924 1 uM, 8 h) 4.33 ± 0.18.

In the case of AESDYSNNIMKCRSRYDGHRIWMY [LOXL2], the protein stability index was 2.4 ± 0.29 (treatment: DMSO) and 2.1 ± 0.38 (treatment: MLN4924 1 uM, 8 h).

For AFHINKGLVKKYMNSLLIGELSPE [FADS1], the protein stability index was 2.45 ± 0.47 (treatment: DMSO) and 2.32 ± 0.26 (treatment: MLN4924 1 uM, 8 h).

As for AGGAPGSPIPSPPGPGDDLCSDLE [HES6], the protein stability index is, setting by setting: (treatment: DMSO) 5.51 ± 0.45; (treatment: MLN4924 1 uM, 8 h) 5.34 ± 0.4.

Regarding AGIELIIEDDIRPEKQKRKPGLRR [MYBL2], the protein stability index is, setting by setting: (treatment: DMSO) 3.63 ± 0.24; (treatment: MLN4924 1 uM, 8 h) 4.26 ± 0.43.

Consider AGREVFDYSHRQKEQDVEKELRDG [NFE2L1], for which the protein stability index runs as follows: (treatment: DMSO) 4.99 ± 0.25; (treatment: MLN4924 1 uM, 8 h) 5.53 ± 0.52.

In the case of AGRRMFPSYKVKVTGLNPKTKYIL [TBX5], the protein stability index is 2.12 ± 0.4 (treatment: DMSO) and 2.2 ± 0.29 (treatment: MLN4924 1 uM, 8 h).

For the sequence AGYEVDKIAQNLDFVNLMAYDFHG [CHIT1], the protein stability index was found to be 2.28 ± 0.41 (treatment: DMSO) and 2.36 ± 0.19 (treatment: MLN4924 1 uM, 8 h).

For AGYYELAQVLLAMHANVEDRGIKG [ANKRD17], the protein stability index is, setting by setting: (treatment: DMSO) 2.02 ± 0.21; (treatment: MLN4924 1 uM, 8 h) 1.96 ± 0.34.

Consider AHAVLGQHSHVVRYFSAWAEDDHM [WEE1], for which the protein stability index reads like this: (treatment: DMSO) 3.55 ± 0.43; (treatment: MLN4924 1 uM, 8 h) 3.71 ± 0.057.

As for AIMRSPQMVSAIVRTMQNTNDVET [CTNNB1], the protein stability index was found to be 3.77 ± 0.098 (treatment: DMSO) and 3.81 ± 0.14 (treatment: MLN4924 1 uM, 8 h).

Consider AITRVSDRFSGETSAAALSPMSAA [SMTNL2], for which the protein stability index stood at 4.06 ± 0.15 (treatment: DMSO) and 3.63 ± 0.29 (treatment: MLN4924 1 uM, 8 h).

AKGIPQRAPPKRKRKRVKQRINTY [PCMTD1] returned a protein stability index (treatment: DMSO) of 4.41 ± 0.14 and a protein stability index (treatment: MLN4924 1 uM, 8 h) of 4.58 ± 0.16.

AKSLSFRKGELVTASKAIIEKEYQ [ADD1]: the protein stability index is 3.71 ± 0.19 (treatment: DMSO) and 3.94 ± 0.45 (treatment: MLN4924 1 uM, 8 h).

AKVNYVKNNICFMSHHQEELVPKQ [SLC2A12]: the protein stability index worked out at 3 ± 0.41 (treatment: DMSO) and 3.16 ± 0.41 (treatment: MLN4924 1 uM, 8 h).

Regarding ALDSADLPPPSALKKGSKEKQADF [NFE2L1], the protein stability index by setting is: (treatment: DMSO) 5.33 ± 0.2; (treatment: MLN4924 1 uM, 8 h) 5.39 ± 0.21.

Take ALHHVHTHLILHRDLKTQNILLDK [NEK8]: the protein stability index is, setting by setting: (treatment: DMSO) 2.25 ± 0.19; (treatment: MLN4924 1 uM, 8 h) 2.29 ± 0.25.
